According to patent US20210145973A1 (CITY OF HOPE, published 2021):
Where no end group is shown, it is not given here. phosphorothioated ssDNA 20mer = not defined here

Experiments:
[1] = biological target: T1, acetylated-STAT3 protein (containing amino acids 127-722) (Homo sapiens (Human), UniProt P40763 127-722, acetylated (site not stated for this protein)); assay: ELISA, plate coated with acetylated-STAT3 protein (amino acids 127-722), n=3 (FIG. 20C, 20D)
T1 construct: Coated on the ELISA plate
T1 sequence (P40763 127-722): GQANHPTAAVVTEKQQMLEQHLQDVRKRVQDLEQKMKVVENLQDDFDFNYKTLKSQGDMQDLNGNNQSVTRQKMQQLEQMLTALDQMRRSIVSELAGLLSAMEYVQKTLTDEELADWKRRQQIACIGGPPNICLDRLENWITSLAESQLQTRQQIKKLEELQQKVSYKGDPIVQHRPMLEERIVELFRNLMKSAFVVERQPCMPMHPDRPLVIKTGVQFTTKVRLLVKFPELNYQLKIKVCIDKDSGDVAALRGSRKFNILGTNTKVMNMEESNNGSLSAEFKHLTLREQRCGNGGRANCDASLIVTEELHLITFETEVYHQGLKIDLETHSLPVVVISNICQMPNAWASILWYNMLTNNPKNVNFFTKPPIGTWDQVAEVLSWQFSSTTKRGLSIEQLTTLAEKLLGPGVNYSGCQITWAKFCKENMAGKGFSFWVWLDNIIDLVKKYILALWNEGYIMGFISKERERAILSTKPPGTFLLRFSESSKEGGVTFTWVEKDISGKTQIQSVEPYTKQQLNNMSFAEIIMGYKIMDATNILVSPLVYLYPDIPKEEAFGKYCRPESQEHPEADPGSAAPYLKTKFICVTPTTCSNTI
Text: (§1) FIGS. 20A-20I: Conjugating phosphorothioated DNA oligonucleotides (PS) enables acetyl-STAT3 peptide cell penetration and specific interaction with STAT3 and exportin 7 proteins as well as downregulation of STAT3 activation. FIG. 20A. Phosphorothioated DNA oligonucleotide-modified STAT3 peptides efficiently penetrate human glioma cell line U251 and human colon cancer cell line HCT116, as assessed by flow cytometry. FIG. 20B. Cell penetration of the PS-acetyl-STAT3 peptide and its colocalization with STAT3 protein in U251 cells are shown by confocal microscopy. Scale, 50 μm. FIG. 20C and FIG. 20D. The PS acetyl-STAT3 peptide specifically binds to acetylated STAT3 protein and exportin 7, as assessed by ELISA, in which the plate is coated by an acetylated-STAT3 protein (containing amino acids 127-722), n=3. FIG. 20E and FIG. 20F. The specific interaction between acetyl-STAT3 peptide and STAT3/exportin 7 shown by immunoprecipitation of the FITC-labeled PS-acetyl-STAT3 peptide followed by Western blotting, shown in U251 cells. FIG. 20G. Downregulation of STAT3 phosphorylation, shown in HCT116 tumors by immunoprecipitation/Western blotting. FIG. 20H. […]
(§2) The PS acetyl-STAT3 peptide specifically binds to acetylated STAT3 protein and exportin 7, as assessed by ELISA, in which the plate is coated by an acetylated-STAT3 protein (containing amino acids 127-722), n=3 (FIG. 20C and FIG. 20D). […]

STAT3 protein = biological target: T2, STAT3 protein (human, UniProt P40763 2-770); assay: immunoprecipitation of the FITC-labeled peptide, Western blotting, U251 cells (FIG. 20E, 20F)
T2 construct: Endogenous STAT3 of human cells (U251, HepG2) or of HCT116 xenograft tumor homogenates
T2 sequence (P40763 2-770 limits assumed): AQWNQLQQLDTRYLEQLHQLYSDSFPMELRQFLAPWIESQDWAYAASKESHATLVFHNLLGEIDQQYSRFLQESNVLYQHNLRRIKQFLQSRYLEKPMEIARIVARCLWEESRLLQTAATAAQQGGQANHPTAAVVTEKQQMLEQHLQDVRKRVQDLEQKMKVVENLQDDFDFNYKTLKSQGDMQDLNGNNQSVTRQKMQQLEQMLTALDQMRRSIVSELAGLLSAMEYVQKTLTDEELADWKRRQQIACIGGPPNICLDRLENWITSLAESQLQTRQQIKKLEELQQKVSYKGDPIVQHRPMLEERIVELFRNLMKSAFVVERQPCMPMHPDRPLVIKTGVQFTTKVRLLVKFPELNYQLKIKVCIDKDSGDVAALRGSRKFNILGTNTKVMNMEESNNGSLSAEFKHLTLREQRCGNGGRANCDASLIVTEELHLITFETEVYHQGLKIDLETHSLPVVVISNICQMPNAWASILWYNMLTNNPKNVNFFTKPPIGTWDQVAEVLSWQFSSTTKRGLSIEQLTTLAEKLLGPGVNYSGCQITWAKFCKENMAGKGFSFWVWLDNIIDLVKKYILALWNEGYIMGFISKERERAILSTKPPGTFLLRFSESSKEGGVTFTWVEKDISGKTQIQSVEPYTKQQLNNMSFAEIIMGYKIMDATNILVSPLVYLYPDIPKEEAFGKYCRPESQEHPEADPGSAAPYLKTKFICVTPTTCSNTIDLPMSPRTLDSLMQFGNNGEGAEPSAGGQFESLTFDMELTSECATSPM
Text: as §1, §2

binding result [1]: binds
binding result (STAT3 protein): binds
B1: PS-acetyl-STAT3 peptide (STAT3-acet.K685 peptide elongated at its C-terminus with a phosphorothioated ssDNA 20mer, FITC-labeled) (peptide)
peptide: PDIPKEEAFGK(Ac)YCRPESQEHPC-{hydrazide linker with FITC (Fam dT)-phosphorothioated ssDNA 20mer}
modifications: cysteine pairing not given here; reading uncertain
notes: Peptide-oligonucleotide conjugate; only the peptide part is a polypeptide; The FITC in the linker was used as the tag for precipitation
